# Assays:
# Conditions in all cases: Homo sapiens
# [1] = substrate: O=c1ccc2nc3ccc(OP(=O)(O)O)cc3oc-2c1; assay: (§1) Binding affinity to ALP (unknown origin) assessed as Kcat/Km
# [2] = substrate: O=c1ccc2nc3ccc(OCc4ccc(OP(=O)(O)O)cc4)cc3oc-2c1; assay: as §1
# [3] = substrate: O=c1ccc2nc3ccc(OP(=O)(O)O)cc3oc-2c1; assay: (§2) Binding affinity to ALP (unknown origin) assessed as catalytic constant
# [4] = substrate: O=c1ccc2nc3ccc(OCc4ccc(OP(=O)(O)O)cc4)cc3oc-2c1; assay: as §2
# [5] = substrate: O=c1ccc2nc3ccc(OP(=O)(O)O)cc3oc-2c1; assay: (§3) Binding affinity to ALP (unknown origin)
# [6] = substrate: O=c1ccc2nc3ccc(OCc4ccc(OP(=O)(O)O)cc4)cc3oc-2c1; assay: as §3
protein,measurement,setting,value
"Alkaline phosphatase, germ cell type (Homo sapiens), P10696 (protein) MQGPWVLLLLGLRLQLSLGIIPVEEENPDFWNRQAAEALGAAKKLQPAQTAAKNLIIFLGDGMGVSTVTAARILKGQKKDKLGPETFLAMDRFPYVALSKTYSVDKHVPDSGATATAYLCGVKGNFQTIGLSAAARFNQCNTTRGNEVISVMNRAKKAGKSVGVVTTTRVQHASPAGAYAHTVNRNWYSDADVPASARQEGCQDIATQLISNMDIDVILGGGRKYMFPMGTPDPEYPDDYSQGGTRLDGKNLVQEWLAKHQGARYVWNRTELLQASLDPSVTHLMGLFEPGDMKYEIHRDSTLDPSLMEMTEAALLLLSRNPRGFFLFVEGGRIDHGHHESRAYRALTETIMFDDAIERAGQLTSEEDTLSLVTADHSHVFSFGGYPLRGSSIFGLAPGKARDRKAYTVLLYGNGPGYVLKDGARPDVTESESGSPEYRQQSAVPLDGETHAGEDVAVFARGPQAHLVHGVQEQTFIAHVMAFAACLEPYTACDLAPRAGTTDAAHPGPSVVPALLPLLAGTLLLLGTATAP",kcat/Km,[1],6.58 10^3/M/s
same,kcat/Km,[2],1.7 10^4/M/s
same,kcat,[3],0.16 s⁻¹
same,kcat,[4],0.26 s⁻¹
same,Km,[5],24.6 µM
same,Km,[6],15.3 µM
